Data as given in US20240327509A1, “HUMAN CXCLI6 ANTIBODIES AND THE USE THEREOF” (CELLUS,INC., priority 2021, published 2024).

T1: Recombinant human CXCL16 (rhCXCL16) protein (human, UniProt Q9H2A7 30-118, limits assumed)
T1 construct: Bought recombinant protein (976-CX, R&D systems); also called CXCL16 antigen; 976-CX (R&D systems)
T1 sequence: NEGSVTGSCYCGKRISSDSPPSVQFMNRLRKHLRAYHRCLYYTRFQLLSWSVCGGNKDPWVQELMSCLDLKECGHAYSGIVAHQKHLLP

T2: Recombinant mouse CXCL16 antigen (mouse, UniProt Q8BSU2 27-114, limits assumed)
T2 construct: Bought recombinant protein (503-CX, R&D systems); also called 503-CX (R&D systems)
T2 sequence: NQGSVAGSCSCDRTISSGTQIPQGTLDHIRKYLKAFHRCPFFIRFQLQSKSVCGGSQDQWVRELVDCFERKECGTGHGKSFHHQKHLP

T3: Recombinant human CXCL16 (rhCXCL16) protein (Homo sapiens, UniProt Q9H2A7)
T3 sequence (Q9H2A7 30-118): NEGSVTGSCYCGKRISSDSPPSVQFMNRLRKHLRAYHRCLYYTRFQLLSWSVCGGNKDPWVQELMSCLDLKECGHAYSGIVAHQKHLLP


Assays:
[1] = tested on: 4T1, a breast cancer cell line; settings: 4T1 in C3H mice; FIG. 7
Procedure: 2×10^6 pieces of 4T1, a breast cancer cell line, were injected into the back of C3H mice, and anticancer drugs were administered to each experimental group from the 5th day when the tumor was formed.

[2] = tested on: anaplastic thyroid cancer cell line FRO; experiment: thyroid cancer mouse model, combination with lenvatinib; type: in vivo, nu/nu mice
From the text: We measured tumor size with a caliper and calculated tumor volume using the following equation: volume=½× a×b2, where a=long tumor diameter and b=short tumor diameter.

[3] = molecular target: T1, Recombinant human CXCL16 (rhCXCL16) …; experiment: BLI (ForteBio), antibody captured on biosensor, rhCXCL16 in solution, 25 C
Procedure: (§1) The binding characteristics of 25 CXCL16 antibodies were analyzed using the bio-light interferometry (ForteBio). All antibodies were diluted in freshly prepared running buffer. Antibodies were immobilized onto the surface of a series of biosensors using the capture methods at 0.3 μg/mL. Recombinant human CXCL16 (rhCXCL16) protein (100 nM) was passed over the surface to generate a binding response for 10 minutes. Binding data for the antibody and antigen interactions were collected at 25° C. on the biosensors. Then, the running buffer was passed for 10 minutes to dissociate them. The association constant (kₐ) and the dissociation constant (kₐ) were observed, and the equilibrium binding constant (KD) was calculated. […] R2: The value indicating how well the fit and experimental data correlate; X²: The measure of error between the experimental data and fitted line.

[4] = molecular target: T1, Recombinant human CXCL16 (rhCXCL16) …; experiment: as above; remark: listed apart in the source
[5] = molecular target: T2, Recombinant mouse CXCL16 antigen; experiment: ELISA, recombinant mouse CXCL16 immobilized on the plate, HRP-labeled anti-human IgG detection, OD 450 nm
Procedure: To evaluate the cross-reactivity with mouse CXCL16 antigen, the same ELISA experiment was performed with recombinant mouse CXCL16 antigen (503-CX, R&D systems). The mouse CXCL16 antigen was immobilized onto 96-well plates by incubation for 2 hours at room temperature. Non-specific binding sites were blocked by incubating with 1% BSA in PBS overnight at 4° C. After coating, the plates were washed with PBS. Humanized CXCL16 antibodies at various concentration (0.00 1˜10 nM) were incubated with the immobilized antigen for 2 hours at room temperature. After binding, the plates were washed, incubated with HRP-labeled anti-human IgG antibody (W4031, Promega, USA) for 0.5 hours, and developed using the substrate solution (DY008B, R&D systems). The binding affinity of humanized antibodies was similar to that of IgG antibody.

[6] = molecular target: T3, Recombinant human CXCL16 (rhCXCL16) protein; experiment: bio-light interferometry (ForteBio) binding analysis; settings: antibody captured on biosensor, rhCXCL16 100 nM, 25° C.; ND = signal was not detectable
Procedure: as §1, with “(ka)” for “(kₐ)”, “X^2:” for “X²:”

| Molecule | Kd [3] [nM] | koff [3] [s⁻¹] | kon [3] [M⁻¹ s⁻¹] | Res@3.7 nM [4] | binding result [5] | also measured |
| --- | --- | --- | --- | --- | --- | --- |
| CC(=O)O[C@H]1C(=O)[C@@]2(C)[C@H]([C@H](OC(=O)c3ccccc3)[C@]3(O)C[C@H](OC(=O)[C@H](O)[C@@H](NC(=O)c4ccccc4)c4ccccc4)C(C)=C1C3(C)C)[C@]1(OC(C)=O)CO[C@@H]1C[C@@H]2O [Taxol, paclitaxel] |  |  |  |  |  | therapeutic effect (tumor growth) [1]: did not have a clear therapeutic effect |
| COc1cc2nccc(Oc3ccc(NC(=O)NC4CC4)c(Cl)c3)c2cc1C(N)=O [lenvatinib] |  |  |  |  |  | therapeutic effect (tumor growth) ([2]; after phase 1, rate the same as that of the control group): therapeutic effect of lenvatinib was lowered; therapeutic effect (tumor growth) ([2]; phase 1 (up to day 22), lenvatinib orally 30 mg/kg/day five times a week): therapeutic effect of lenvatinib was maintained |
| HC5LC5 (antibody, human IgG1, kappa, V domains shown, Humanized; human IgG1 / kappa constant domains; also called HCSLCS; humanized CXCL16 antibody HC5LC5) VH: EVQLVESGGGLVQPGGSLKLSCAASGFTFSNAVMNWVRQASGKGLEWVARIRTKPNNYATFYADSVKGRFTFSRDDSKNTAYLQMNSLKTEDTAMYYCTAWTTEGIYWGQGTLVTVSS VL: DIVMTQSPSSLAVSAGERATINCKSSQSLLYSGNQKNYLAWYQQKPGQSPKLLIYWASTRQSGVPDRFIGSGSGTDFTLTISSLQAEDVAIYYCQQYYDTPWTFGGGTKLELKR | < 0.001 | < 1e-07 | 18200 | 0.231 | no binding (tested: 1500 ng/mL) |  |
| HC5LC2 (antibody, human IgG1, kappa, V domains shown, Humanized; human IgG1 / kappa constant domains; also called HCSLC2; humanized CXCL16 antibody HC5LC2) VH: EVQLVESGGGLVQPGGSLKLSCAASGFTFSNAVMNWVRQASGKGLEWVARIRTKPNNYATFYADSVKGRFTFSRDDSKNTAYLQMNSLKTEDTAMYYCTAWTTEGIYWGQGTLVTVSS VL: DIVMTQSPSSLAVSLGETATINCKSSQSLLYSGNQKNYLAWYQQKPGQPPKLLIYWASTRQSGVPDRFTGSGAGTDFTLTISSVQAEDLAIYYCQQYYDTPWTFGGGTKVEIKR | 2.5 | 6.07e-05 | 24300 | 0.152 | no binding (tested: 1500 ng/mL) |  |
| HC0LC0: chimeric antibody that binds to human CXCL16; rat variable regions (CDRs SEQ ID NOs 12-17), heavy SEQ ID NO: 32, light SEQ ID NO: 34 (antibody) heavy: ACCMGWTLVFLFLLSVTAGVHSAVQLVESGGGLVQPKESLKISCAASGFTFSNAVMNWVRQAPGKGLEWVARIRTKPNNYATFYADSVKGRFTFSRDDSKSMVYLQMDNLKTEDTAMYYCTAWTTEGIYWGQGTLVTVSSAETTAPSVYPLAPGTALKSNSMVTLGCLVKGYFPEPVTVTWNSGALSSGVHTFPAVLQSGLYTLTSSVTVPSSTWSSQAVTCNVAHPASSTKVDKKIVPRECNPCGCTGSEVSSVFIFPPKTKDVLTITLTPKVTCVVVDISQNDPEVRFSWFIDDVEVHTAQTHAPEKQSNSTLRSVSELPIVHRDWLNGKTFKCKVNSGAFPAPIEKSISKPEGTPRGPQVYTMAPPKEEMTQSQVSITCMVKGFYPPDIYTEWKMNGQPQENYKNTPPTMDTDGSYFLYSKLNVKKETWQQGNTFTCSVLHEGLHNHHTEKSLSHSPGK light: ACCMVSSAQFLGLLLLCFQGTRCDIVMTQSPSSLAVSAGETVTINCKSSQSLLYSGNQKNYLAWYQQKPGQSPKLLIYWASTRQSGVPDRFIGSGSGTDFTLTISSVQAEDLAIYYCQQYYDTPWTFGGGTKLELKRADAAPTVSIFPPSTEQLATGGASVVCLMNNFYPRDISVKWKIDGTERRDGVLDSVTDQDSKDSTYSMSSTLSLTKADYESHNLYTCEVVHKTSSSPVVKSFNRNEC |  |  |  |  |  | kd [6]: <1e-07 s⁻¹ |
